Values of other authors in PMC3024536.

Target: CD8αα (Mus musculus) (UniProt P01731)
Sequence of UniProt P01731 (P01731 28-196): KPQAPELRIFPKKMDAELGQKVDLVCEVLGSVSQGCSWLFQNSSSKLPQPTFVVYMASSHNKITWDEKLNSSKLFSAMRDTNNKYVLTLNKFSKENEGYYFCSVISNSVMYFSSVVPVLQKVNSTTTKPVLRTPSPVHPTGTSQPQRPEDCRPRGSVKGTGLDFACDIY

Kd: 12 µM
Substance: thymus leukaemia antigen (TL) (from UniProt P14432)
